Numbering of substitutions follows the chain as printed. Numbers in names are those of the source. Entries after “also recorded” stand apart in the source; their conditions may differ.

For assay [1], the target named is T1, UbcH8 (Homo sapiens, UniProt O14933).
T1 construct: expressed in transfected cells; host or cells: HEK293
As to the kind of experiment: Co-immunoprecipitation of Myc-Parkin with UbcH8 expressed in HEK293 cells. The assay is classed as binding. The settings on record: 48 hours after transfection, IP with antiMyc antibody. On the procedure: (§1) For preparing pcDNA3.1(+)Myc and pcDNA3.1(+)FLAG vectors, oligo DNA encoding N-terminal Myc and FLAG epitopes was ligated at KpnI/BamHI domain of pcDNA3.1(+) (Invitrogen). After the amplification of wild type parkin or N-terminal-deficient variant, Ubc2(HHR6B), UbcH8 and cDNA of ubiquitin with a suitable primer, they were ligated in BamHI domain of the vector. The C-terminal-deficient variant and missense variant of parkin were prepared by introducing a variation into pcDNA3.1(+)Myc-Parkin by using a Quik Change domain specific variation inducing kit (Stratagene) according to a manual. pCAGGS-Ubc3 was already reported [Iwai K. et al., Proc. Natl. Acad. Sci. USA 96, 12436-12441 (1999)].
(§2) pCGN-Ubc4 and other pcDNA3.1(+)FLAG-Ubc were prepared from human liver cDNA library by an ordinary method. Ubc used was obtained from human beings in all the cases. […]
(§3) The following test was conducted to find whether Parkin concerns the ubiquitin pathway or not. To find whether the interaction between Parkin and each of various E2 enzymes occurs or not, Myc-labeled parkin was expressed together with various E2 enzymes labeled with FLAG, HA or His at different domains in HEK293 cells, and the interaction of them was detected by the immunoprecipitation The results are shown in FIG. 1. […]

In assay [2] the test system is UbcH5A-C. As to the kind of experiment: Co-immunoprecipitation of Myc-Parkin with UbcH5A-C expressed in HEK293 cells. The settings on record: IP with antiMyc antibody. The assay is classed as binding, human. On the procedure: as §1, §2, §3
Assay [3] concerns the target T2, UbcH7 (Homo sapiens, UniProt P68036).
T2 construct: expressed in transfected cells; host or cells: HEK293
The assay can be described thus: Co-immunoprecipitation of Myc-Parkin with FLAG-UbcH7 expressed in HEK293 cells. The settings on record: 48 hours after transfection, IP with antiMyc antibody. The assay is classed as binding. As to the method:
as §1
(§4) pCGN-Ubc4 and other pcDNA3.1(+)FLAG-Ubc were prepared from human liver cDNA library by an ordinary method. Ubc used was obtained from human beings in all the cases. Human fetal kidney 293 (HEK293) cells and human dopamigenergic neuroblastoma SH-SY5Y cells were cultured in DMEM containing 10% bovine fetal serum, 10 μg/ml streptomycin and 100 U/ml penicillin.
The transfection was carried out by using FuGENE6 transfection reagent according to the producer (Boehringer-Mannheim)'s manual. […]
The following test was conducted to find whether Parkin concerns the ubiquitin pathway or not. To find whether the interaction between Parkin and each of various E2 enzymes occurs or not, Myc-labeled parkin was expressed together with various E2 enzymes labeled with FLAG, HA or His at different domains in HEK293 cells, and the interaction of them was detected by the immunoprecipitation The results are shown in FIG. 1.
Concretely, pcDNA3.1(+)Myc-Parkin ([…]) was transfected in HEK293 cells simultaneously with various expression vectors encoding FLAG-, His- or HA-Ubc in an amount shown in the parentheses in FIG. 1. […] The cell extracts (upper panel in FIG. 1) and immunoprecipitates (middle and lower panels in FIG. 1) were analyzed by the immunoblotting with various antibodies as shown in FIG. 1. […]

In assay [4] the target is T3, Ubc3 (Homo sapiens, UniProt P49427).
T3 construct: expressed in transfected cells; host or cells: HEK293
T3 sequence (P49427 1-236): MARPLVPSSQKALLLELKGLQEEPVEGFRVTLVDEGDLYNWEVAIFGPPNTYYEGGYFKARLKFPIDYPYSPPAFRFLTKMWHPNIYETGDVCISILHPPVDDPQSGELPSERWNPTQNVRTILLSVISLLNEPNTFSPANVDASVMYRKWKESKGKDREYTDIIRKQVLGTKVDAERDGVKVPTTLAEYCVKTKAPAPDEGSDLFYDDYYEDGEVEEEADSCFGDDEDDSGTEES
The assay can be described thus: Co-immunoprecipitation of Myc-Parkin with Ubc3 expressed in HEK293 cells. Conditions: IP with antiMyc antibody. The assay is classed as binding. As to the method: as §1, §2, §3

Assay [5] deals with Ubc4. The assay can be described thus: Co-immunoprecipitation of Myc-Parkin with Ubc4 expressed in HEK293 cells. The assay is classed as binding, human. Conditions: IP with antiMyc antibody. On the procedure: as §1, §2, §3
The test system of assay [6] is human dopamigenergic neuroblastoma SH-SY5Y cells. As to the kind of experiment: Association of FLAG-ubiquitinated cell protein with Myc-Parkin in SH-SY5Y cells (antiMyc immunoprecipitation, antiFLAG immunoblotting). The assay is classed as cell-based. On the procedure:
as §1, §4
(§5) The transfection was carried out by using FuGENE6 transfection reagent according to the producer (Boehringer-Mannheim)'s manual. The cells were treated with MG132 (Cbz-Leu-Leu-Leu-aldehyde) (Peptide Institute, Inc., Osaka, Japan) having a final concentration of 50 μM.
(§6) The immunoprecipitation was conducted with rabbit polyclonal antiMyc antibodies (A-14) (Santa Cruz Biotechnology) as previously reported [Suzuki H. et al., Biochem. Biophys. Res. Commun. 256, 127-132 (1999)]. The immunoblotting was conducted with biotin linked mouse monoclonal antiFLAG(M2) antibody (SIGMA), mouse monoclonal antiMyc antibody (9E10) (Santa Cruz Biotechnology), mouse monoclonal antiHA antibody (HA.11) (Berkeley Antibody Company) or mouse monoclonal antiHis antibody (RGS.His) (QIAGEN). Streptoavidin/horseradish peroxidase complex (Amersham Pharmacia Biotech) was used for detecting biotin-linked antiFLAG(M2) antibody.
(§7) At first, 10 μg of pcDNA3.1(+)Myc-parkin and 10 μg of pcDNA3.1(+)FLAG-ubiquitin vector were simultaneously transfected into SH-SY5Y cells. […]

In assay [7] the target is T4, Ubc2 (Homo sapiens, UniProt P63146).
T4 construct: expressed in transfected cells; host or cells: HEK293
T4 sequence (P63146 whole entry): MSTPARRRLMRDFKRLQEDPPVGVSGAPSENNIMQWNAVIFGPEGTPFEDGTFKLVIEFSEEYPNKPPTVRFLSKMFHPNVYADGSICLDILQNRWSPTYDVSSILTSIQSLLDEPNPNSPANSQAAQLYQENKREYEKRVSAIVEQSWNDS
The assay can be described thus: Co-immunoprecipitation of Myc-Parkin with Ubc2 expressed in HEK293 cells. Conditions: IP with antiMyc antibody. The assay is classed as binding. As to the method: as §1, §2, §3

For assay [8], the system named is HEK293 fetal kidney cell. The assay can be described thus: Association of FLAG-ubiquitinated cell protein with Myc-Parkin in HEK293 cells. The assay is classed as cell-based, human. The settings on record: HEK293 fetal kidney cell extract, same analysis as in SH-SY5Y. On the procedure: as §4, §5, §6, §7
Assay [9] concerns the target T5, UbcH6 (Homo sapiens, UniProt P51965).
T5 construct: expressed in transfected cells; host or cells: HEK293
As to the kind of experiment: Co-immunoprecipitation of Myc-Parkin with UbcH6 expressed in HEK293 cells. The assay is classed as binding. The settings on record: IP with antiMyc antibody. As to the method: as §1, §2, §3

Where [10] appears, read: SH-SY5Y cells treated with proteasome inhibitor MG132 (50 μM).

T2 sequence (P68036 whole entry): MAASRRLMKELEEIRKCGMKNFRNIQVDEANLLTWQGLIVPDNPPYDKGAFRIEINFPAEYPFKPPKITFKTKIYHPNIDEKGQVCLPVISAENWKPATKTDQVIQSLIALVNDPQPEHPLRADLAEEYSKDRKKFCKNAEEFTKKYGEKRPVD
T1 sequence (O14933 whole entry): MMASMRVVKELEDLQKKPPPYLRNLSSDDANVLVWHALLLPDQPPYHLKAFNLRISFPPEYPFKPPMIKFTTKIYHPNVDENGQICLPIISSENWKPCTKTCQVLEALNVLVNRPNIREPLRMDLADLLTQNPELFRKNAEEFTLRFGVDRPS
T5 sequence (P51965 whole entry): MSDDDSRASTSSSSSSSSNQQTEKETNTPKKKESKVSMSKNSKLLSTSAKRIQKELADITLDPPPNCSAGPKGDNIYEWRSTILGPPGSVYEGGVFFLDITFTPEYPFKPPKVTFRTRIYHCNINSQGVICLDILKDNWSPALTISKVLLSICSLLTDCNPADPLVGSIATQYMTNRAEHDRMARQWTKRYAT

B1: Parkin: Protein of 465 amino acids encoded by parkin, with N-terminal ubiquitin-like domain and C-terminal RING-box; used Myc-labeled (protein, UniProt O60260 1-465, looked up)
E3 ubiquitin-protein ligase …: MIVFVRFNSSHGFPVEVDSDTSIFQLKEVVAKRQGVPADQLRVIFAGKELRNDWTVQNCDLDQQSIVHIVQRPWRKGQEMNATGGDDPRNAAGGCEREPQSLTRVDLSSSVLPGDSVGLAVILHTDSRKDSPPAGSPAGRSIYNSFYVYCKGPCQRVQPGKLRVQCSTCRQATLTLTQGPSCWDDVLIPNRMSGECQSPHCPGTSAEFFFKCGAHPTSDKETSVALHLIATNSRNITCITCTDVRSPVLVFQCNSRHVICLDCFHLYCVTRLNDRQFVHDPQLGYSLPCVAGCPNSLIKELHHFRILGEEQYNRYQQYGAEECVLQMGGVLCPRPGCGAGLLPEPDQRKVTCEGGNGLGCGFAFCRECKEAYHEGECSAVFEASGTTTQAYRVDERAAEQARWEAASKETIKKTTKPCPRCHVPVEKNGGCMHMKCPQPQCRLEWCWNCGCEWNRVCMGDHWFDV
modifications: Myc tag
notes: Protein of 465 amino acids encoded by parkin, with N-terminal ubiquitin-like domain and C-terminal RING-box; used Myc-labeled
As to B1, the “association (co-immunoprecipitation) with UbcH8” value in assay [1] is “not detected under ordinary conditions; also recorded: UbcH8 immunoprecipitation was weak”. For the same molecule, the “association (co-immunoprecipitation) with UbcH5A-C” value in [2] was “no detectable linkage”. Besides, the “association (co-immunoprecipitation) with UbcH7” value (“association … with UbcH7” for short) in assay [3] is on record as “immunoprecipitated together with Parkin”. The “association (co-immunoprecipitation) with Ubc3” value in [4] was “no detectable linkage”. Moreover, the “association (co-immunoprecipitation) with Ubc4” value in assay [5] is recorded as “no detectable linkage”. For the same molecule, the “ubiquitinated protein bands associated with Parkin” value in assay [6] (setting [10]) was “ubiquitinated bands including high-molecular ubiquitinated proteins, were detected”; in assay [6] (SH-SY5Y cells, no treatment with inhibitor), “no ubiquitinated band was found”; in [8], “no ubiquitinated band linked with Parkin was observed”. Further, the “association (co-immunoprecipitation) with Ubc2” value in assay [7] is listed as “no detectable linkage”. For the same molecule, the “association (co-immunoprecipitation) with UbcH6” value in assay [9] is reported as “no detectable linkage”.

B2: Parkin^T240R: Missense Parkin variant from AR-JP patient, No. 240 threonine replaced with arginine (RING1 domain) (protein, UniProt O60260 1-465, looked up, variant T240R)
E3 ubiquitin-protein ligase …: B1 E3 ubiquitin-protein ligase … with T240R
On to B2, for which the “association … with UbcH7” value in assay [3] is recorded as “did not interact with UbcH7”.

B3: Parkin^R42P: Missense Parkin variant from AR-JP patient, No. 42 arginine replaced with proline (ubiquitin-like domain variant) (protein, UniProt O60260 1-465, looked up, variant R42P)
E3 ubiquitin-protein ligase …: B1 E3 ubiquitin-protein ligase … with R42P
As for B3, the “association … with UbcH7” value in assay [3] is “could be linked with UbcH7”. In addition, in assay [6] (setting [10]), the “ubiquitinated protein bands associated with Parkin” value is on record as “substantially completely lost the association with the ubiquitinated protein”.
